The data set in a line: soluble on expression in E. coli; label from the status in PepcDB or PDB records.
As for “MGSDKIHHHHHHMTEKKIILADEPLKSPDQDKLGFAPFAKRIATVIQSVQLRESIVFAVYGKWGSGKTTFINFLTSYLNHDSSITIVKFDPWWFSEKEDLIRQFLSNLQFTLNKSTKFKDIAKMLKPYIETLGEIPKFGWIFKIASRFKKNLQKSVIETKEEIINRLKEKDGKIVVIIDDIDRLTAKEIRELFTIVKAIADFPNTVYILAFDKDIVIRALEKVQEGKGEDYLEKIIQIPIELPLADKTSIRKMLFEELDAVLSGTSNELFDSTYWRNVYWDGIDPFINTVRNVKRLINTIRVTYPSVKNEVNAVDFIAIETLRVFCPEVYSIVKDYPDMFCGYSGEIYDVSRRHIEFLKQFHQNWLSRLNFPDDLKENIKNLLKRLFPKFESVFENIYYGPDWEREWRKKYRICCKEIFPRFFIFSVPSDDLSKHEMDFILSSLHNKEALIEHLKRLATQIRSDGSTRLSIFLERMEDYASEISQDYIPVVIEVFFTIGDKLIIPEDENKSFLIPWGNDIRMERIIWRLLRRYDNNSKRFEVLKNAFKNGQALFMMVNVLILFWQQHRKYRDAKESDAILLDENHLKTLQEIVLDKIRKAVEEGSLLNTPSLPVILHQWREWANEDEVKEWVKEIVFSDEKLPIFLTKFLQKTVSWTETSRATNIYWQIDLNWLKDFINLDFLEKRCNEILSNDSIIGTLEDKQKLAIRLFLNEKTKSLDSSTEEQGKDG”, the “soluble on expression in E. coli” value is reported as “not soluble”.
Then “MTDVVVAGGGLAGLVAARHLAESGRDVTVFEQRSDVGGRVRTVHEDGYTFDRGFQVMFTAYPAAKRELDIEALAPRTFTPGATIASPNHRSVLSDPLRNPSAAPQTLLNTDVRTADKLRLFRLQRELAGVEPVELLSRGGTTIREYLADYGFSKRFVERFAAPFYGGITLDRSLGTDSSIFEYTYKMLSEGEIFVPADGMQAMPRQLADRARSAGATIETDAPVTELETHEGEVTAEVGRETVTAESAVVATDPQTAAELTDIDAIPTEPVGCVTQYFALPTNRAPATGQRIILNATDDRPNTVAPLSAVASEYAPAGMELYSATFLGTPEEDDAELAAEVRAALQSWYPNASFEALELLRTDRVPLSQFAQPPGYRDALPDPTAPEGNAVLAGDYTRWSAIQGALESGKVAADLLRLEHHHHHH”, with “not soluble”; and “AHHHHHHGSGKTGIEYFDNFILKDGFPDGSLILVAGEPGAGKTIFSATYLYNGAKKFGEKGVYISLAETKREFYEAMKQLGMDFEELEKKGLFRFIDLVTVSRGAIEKEIQFLMSEISSFQPKRVVIDSISVFAQILGLEKTRVFLHTMLGRFIKAYNATALLIAEKPMGSKTIGHGVEEFVVDGVIILKYKSLGEITRRVMEIPKMRRRSVERAEYEYVITKNGIEFLELPDLVRDKGEYTLEKITTGIEKLDKMLDGGYTRDQMF”, with “soluble”.
Then “GPGSMPPKRPLYEVLGVSQDAAEEEISRVYRRMALQYHPDRNPNGEAKFKDIANAYSVLGDSEKRRVYDATGVIPGGAAETDNEATMAERSAEMKERVQVFYATYAGSPEETEDVISCYKKCKGNFRRMAREELLFDNKKQGEIQRLMELVRSLVESGRLNPTEAWKVTNTAAVLKQIERSLTRERKEAKDALDAMGLSAKEGEGGLHALQALMKRDQEAEWSKMMSNLESKYVKPKSATKGVEQNGKRNKRKAEATKTVSAPPQKKSRR”, with “soluble”; and “MINAKVHVAVPTAFYADESLNISATLAHAQYLLDHQIESVMLCGSTGEQHSLDLDEKIALARAVDRAEWPQGAEIIFGVSAIRQSHAVRLAQVVAQCERIDAILVGFPPYIRPTQDQARRFVTAITQTAGKPAIIYNNPARTGFDASASTLAQLCMLPDVIGVKDPGGAPKLAEVSREIAPFRARYYAGGELDLHAKVAHGYTYLSSIVGNIAPEETVAWFNALRHGEEYESSSRLQELIDQLFAHHPIQFLKEKISTQEGINMGSCRLPLGPIAD”, with “not soluble”.
With “MRVLVLCTHNSARSQMAEAWLKHFARELGVDLEVHSAGTEKAFVKEEAKRVMAEVGLDLSGHFSKTLLEVPDPWDFGLVLTVCDQAKEACPAYPARTERRHVSFPDPTGKPLEEWRKVRDALGRMARFLVEALKEGRLPSDEELRQAARL”, the “soluble on expression in E. coli” value is given as “soluble”.
As for “GHDEIGQLATTFNHLTRELEDAQAMTEGERRKLASVIAYMTDGVIATNRNGAIILLNSPALELLNVSRETALEMPITSLLGLQENYTFEDLVEQQDSMLLEIERDDELTVLRVNFSVIQREH”, the “soluble on expression in E. coli” value is recorded as “not soluble”.
Then “MTFAGIDVSKTHLDLALVSNSPKPTRLRFPNSPEGRQALLAALAHHNPAWVALEPTSAYHLPLLKLLAENRLQVALVNPYHLAAFRKAKGERQKTDRQDALLLARYAQVYHEDLRAYTLPPETLRELKALVGYREDLAGRERTILNQMEAAEWAGSKEVLALLQKELACVKGLLGEVEARIQALLATLPEAEVLMALPGVGPQVAAAVLALLPPELWGRAKRAASYAGLIPEREESGKSVERSRLSKKGPPLLRRKLYMGALVAVRHDPEMRAFYHRLLSRGKRKKQALVAVAHKLLRRMMGRLREYYATQLDQGVA”, with “soluble”; and “YKIEKEQRLGLIPQREGNYEKNKNVLESATVKINYYSSKATSGQAGAAASAAFAKNNNTSDNTQQNQTSSVEAKSVNVTKHSFVQALKKVGFSGSNPLHFNMKLGNSSLSANGVDYYNAVKQALTELG”, with “not soluble”.
Then “MRYAEVLIPLALEGSFHYRLAEGLAEKAIVGMRCVVPFGAKRYYTGIIIGLSDKRPNLQISFKEVLFLPDDKPSVTASQLSLWQWLSAYYICTQGEVLRAALPAALLPESHTVIHYNTDFEADSRLSRDEEELLDILESAKGRTYTLDALQKAVGKRAIRAFTSLVERGAIRLEEEVKSRYKPKSEVFVRLAEPFRTEKTFASLLDSLHRAPKQSALLLHWAELITEHSLPYSSPMPQRLLAESDPHATVTLSALKKKGIFLSESVTHSVMYSAGGGEYRLWEQPQEEEKAIQSEESSTDSAVSASLPQKPLSLLYTHDFRRKEKQLLEWTEEVVRSGGQVLYLSPEANKRGGSDTLSTRMAERLGSCLLSYHAFESDAKRVEVWNRLATTEYPCVVLGVRSALFLPFRRLRLIIVDEEQEYLYKQQDPAPRFHTRQVAARLGRIHDCPVVLASATPSAEVLHQVRHKACELITWPDDRVRPRFDLEVIDMGKMRRQRQVGAGELLSFPLVSAIEETIRQKKMAVVLQNRRGFAPYIICSSCGEKLRCIHCDVSLTYHKHSCMLVCHYCGYSRPLPRICPSCKRASGVGEPSSLQPVGYGAERIEEELKRRFPTVSILRMDSDMAMSRTKMDEALARLEAKEVDILVGTQLIKGQVYNEHVGLVAVTQLDSILGFPDFRAYERAYQLLYQLMLRSGASRLYIQTNNPANSFPDLLREGDYKAFIGKQLEERQMLFFPPFSRLIRIEFRAGEESLVERIASDYAASLAAHLPEQSLSPVLVPPISRLRNAFIRELLLRLPLSSSVSATRNILDTIRTTLQTRTQEYKRVRILFDVDPL”, with “not soluble”; and “MNSSLKNLLNNKILVLDGAMGTCIQSFNLDEGDFKGSLSCTCHSNQKGNNDVLNLTKPEIIKEIHKRYLEAGADIIETNTFNATEISQKDYNMQDKIYDINFKGAKLAKEACTYYTKLNPNKPRFAAGSIGPTNRTASLSPDVENPGFRNVTFDELCNAYKHQIEALIDGGVDLLLIETIFDTLNARAAIFAAETVFENKKIKLPIIISGTIADKSGRILSGQTLDAFAESLKNENIIAIGLNCSFGAEELIPFIKRLSETQNRYISFHPNAGLPNSLGEYEELPEETASIVKKLALEGHLNIVGGCCGTTPEHIRAISSVVKGISPRKVPNLEPKTIYSGLENIKIDKNSNFINIG”, with “not soluble”; and “MSLEDCVISEWGPWTQCALPCNPSGSRQRSADPIRQPADEGRACPDAVEKEPCSLNKNCYHYDYNVTDWSTCQLSEKAVCGNGIKTRMLDCVRSDGKSVDLKYCEELGLEKNWPMNTSCTVECPVNCQLSDWSSWSQCSQTCGLTGKMIRKRTVTQPFQGDGRPCPSLMEQSKPCPVKPCYRWQYGQWSPCQVQEAQCGEGTRTRNISCVVSDGSAEDFSKVVDEEFCANTELEGHHHHHH”, with “not soluble”.
Then “MGHHHHHHSHMCNGSFTEKLKLLFKLHIPPAYTEVKSKDASKGDELSKEELLYFSQLHVSKPANEKEAESAKHSPEKGKGKIDIQAYLSQWQDELFKKEENIKDLPRMNQSQFIQFSKTLYNLFHEDPEEESLYQAIAVVTSLLLRMEEVGRKLHSPTSSAKGFSGTVCGSGGPSEEKTGSHLEKDPCSFREEPQWSFAFEQILASLLNEPALVRFFEKPIDVKAKLENARISQLRSRTKM”, with “soluble”; and “MSLGKEEEYRITNVKIFKDTPVWELALAVKNEKTRTIEKLAKENPELLNYQEPKYGATLLLWAVGMEKYKSAEALLKCGADPNIASTVDGMTPLYLAAGFSWIDNYAKKDPKFVKLLLKYNADPNITYGGNAIIEPGTSPLMNSIRCGIEKTKALVEAGAYINYKTKSGTTAAIKALLAGQNATLEALEYAHYLIVEKKAKVTDPYYPWLVYEENNIQELYPVDILRRWVYPLDSEEYRIKMEIVEEFARQGVNYWDTEIDKYTLEQIKKLYPDTWEEYIKRYEGHHHHHH”, with “soluble”.
Turning to “MGSDKIHHHHHHMSEDQKRILEQQLWNIANTLRGKMNADEFRDYILGFIFYKYLSEKMEIFANDILKQDKISFREITPKLKQGKEYLEAIREEALEKLGYFLKPEELFSEVAKRGRGSNDEGENFDEAKTNFILEDLQKILINIQLSTMGTDSEEDFDNLFEDMDLNSTKLGKTPDARNAIIAKVLTHLDKIDFKLEDLESDVLGDSYEYLIGQFASGAGKKAGEFYTPQQVSKILAKIVTTEKHKLKSVYDPTCGSGSLLLRVAREVKDVAKFYGQEMNRTTYNLARMNMILHGVHYRKFDIKQEDTLEHPQHMGQQFEAIVANPPFSAQWSANPLHLSDDRFSQYGKLAPASKADYAFVQHMVHHLAENGIMALVLPHGVLFRGGAEQHIRKYLIEQKNYLDAVIGLPGNIFYGTSIPTCILVIKKCREMPDNILFIDASKEFEKVKTQNILREKHIDKIVDTYRSRKEIEKYSHCASLKEIAENDFNLNIPRYVDTFEEEEEIDIQAVMAEIKNLEAKRTDLDKQIDVYMKELGLVF”, the “soluble on expression in E. coli” value was “not soluble”.
Turning to “MGSDKIHHHHHHMAATFKMVGVIRFSLLTPTFNADRYPDLEAAAAAIFAPDRMALRLHLFETLCLPSLVRQSDAAFHLVVATSDRLPAVILQHLQALLAPHDHMQLIQFAPENHYQILKEAYRAVPQQGESHRILFRLDDDDALDRHYVARCKRLAAGLVPLQTEAVSPIALAFNRGYYLIREEGQPPVVMDSCERAPLSAGTALVQPIAARGNPYRYNHRKFAQHYTLYSDISVPSFVRTVHGDNHSTPAMMGLTARQSDAEMDADLQRHFDLSLSDLKAI”, the “soluble on expression in E. coli” value is on record as “not soluble”.
As to “MGFLQRIGLLPQVTTTPTQHELLAPLLDTYIGVVTEMPTEELFAEQPHLRTVTTFIARAISSTSLHVYRRDSDGGRHRVRDSDLAKLMRRSSKTELMQDMLNGSILDLCLYDEFIWVAMEDSDSGEWELHRIPPTWIKQRKHSDPWTLEWMGIIDAKTGQQIKIPAERIIHVHGYNPTSTSRGLTPVVALRETLKEQLESAAYRGQLWRNGPRLGGVITRPKDAKWDSTSRKRFKAAWQSQYSGRGSGAGGTPILEDGMQFVPAHLKAQDEQVVEMTKLSLQTVASIYHVNPVMVGLLDNANYSNVREFRRSLYGDSLGPIIKQVEGVINEFLRPMIDDDDAVYVEFNLDEKLRASFEEKAAVTSTAVGGPWMTRNEARAMNNLPAIDGGEDLITPLNVTTENSESNNDVGLEEES”, the “soluble on expression in E. coli” value is recorded as “not soluble”.

The values above are taken from the DeepSol protein solubility set.
